This is an account of results in paper PMC11481913, “Rational design of a flavoenzyme for aerobic nicotine catabolism” (mBio, 2024).

This data set concerns CNCCCC(=O)c1cccnc1. As to the kind of experiment: purified protein. In kind it is biochemical, Pseudomonas putida. The settings on record: Tris-HCl pH 8.0, 30 C, O2 as acceptor.

In general, Km refers to the concentration of substrate that gives half-maximal velocity. In general, kcat refers to the number of substrate molecules converted per active site and unit of time at saturation. The term kcat/Km denotes the second-order rate constant that governs catalysis at low substrate concentration. For the substance “Pnao (Pseudomonas putida S16; N224G/W220Y)”, the Michaelis-Menten constant (Km) is 0.15 ± 0.00 mM, the kcat was 135 ± 2 s⁻¹ and the kcat/Km was 910000 M⁻¹ s⁻¹.
The matching figures for Pnao (Pseudomonas putida S16; F388A): 0.054 ± 0.001 mM, 0.75 ± 0.01 s⁻¹ and 14000 M⁻¹ s⁻¹.
For Pnao (Pseudomonas putida S16; R96A), in that order: 0.056 ± 0.001 mM, 0.75 ± 0.06 s⁻¹ and 13000 M⁻¹ s⁻¹.
The matching figures for “Pnao (Pseudomonas putida S16; N224I/W220Y)”: 0.57 ± 0.05 mM, 383 ± 19 s⁻¹ and 680000 M⁻¹ s⁻¹.
As for Pnao (Pseudomonas putida S16), the Km came to 0.032 ± 0.001 mM, the kcat is 197 ± 1 s⁻¹ and the kcat/Km is 6.1e+06 M⁻¹ s⁻¹.
For “Pnao (Pseudomonas putida S16; R96A/S461A)”, in that order: 0.083 ± 0.012 mM, 0.39 ± 0.01 s⁻¹ and 4700 M⁻¹ s⁻¹.
